Numbering of substitutions follows the chain as printed.
Tests used:
SgrAI K242A = target: T1, SgrAI K242A (UniProt Q9F6L0 1-339, K242A;L336K); experiment: cryo-EM structure (3.3 A); Mg2+ in sites A and B; filament; DNA uncleaved; 30 min at room temperature; Cryo-EM samples: buffer containing MgCl2, room temperature (30 min for K242A, 1.5 h for WT); full buffer, salt and pH not in the material; conditions: protein: recombinant; tags: His tag implied (HisTrap purification); chain copies: 2; blunt
T1 sequence: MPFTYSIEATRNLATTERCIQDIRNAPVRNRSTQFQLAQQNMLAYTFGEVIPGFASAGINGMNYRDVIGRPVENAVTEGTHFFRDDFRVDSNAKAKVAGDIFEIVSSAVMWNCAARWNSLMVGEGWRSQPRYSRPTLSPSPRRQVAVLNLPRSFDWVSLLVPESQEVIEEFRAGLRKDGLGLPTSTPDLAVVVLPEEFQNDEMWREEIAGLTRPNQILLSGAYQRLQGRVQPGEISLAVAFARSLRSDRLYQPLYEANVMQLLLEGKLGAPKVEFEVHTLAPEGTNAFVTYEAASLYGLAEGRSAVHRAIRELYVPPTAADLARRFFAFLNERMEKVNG

SgrAI WT = target: T2, SgrAI WT (UniProt Q9F6L0 1-339); experiment: cryo-EM structure (3.1 A); Mg2+ in sites A and B; filament; DNA cleaved at the scissile phosphate during 1.5 h incubation (product complex); Cryo-EM samples: buffer containing MgCl2, room temperature (30 min for K242A, 1.5 h for WT); full buffer, salt and pH not in the material; conditions: protein: recombinant; tags: His tag implied (HisTrap purification); chain copies: 2; blunt
T2 sequence: T1 sequence with A242K, K336L

B1: 40-1 (dsDNA)
DNA 1: GATGCGTGGGTCTTCACACCGGTGGATGCGTGGGTCTTCA
DNA 2: TGAAGACCCACGCATCCACCGGTGTGAAGACCCACGCATC
SgrAI K242A
  binding result: binds
SgrAI WT
  binding result: binds
